Data set [1] concerns HeLa Kyoto. Nature of the data set: solubility in G1/S (NP-40 vs SDS abundance) (log2 ratio); higher = more soluble. Particulars: cell cycle stage: G1/S.
The subject of data set [2] is HeLa Kyoto. In words: melting temperature (median over replicates), in situ; higher = more thermally stable.
Data set [3] relates to HeLa Kyoto. Nature of the data set: solubility change mitosis vs G1/S (difference of NP-40 vs SDS log2 ratios) (log2 ratio difference); higher = more soluble in mitosis.
Data set [4] deals with HeLa Kyoto. In words: thermal stability score vs G1/S (z-score of summed log2 fold changes over temperatures); higher = more thermally stable than in G1/S.
The mark [5] stands for this setting: cell cycle stage: early G1 (4.5 h after nocodazole release).
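Throughout, for melting temperature (median over replicates), in situ: HeLa Kyoto cells synchronized by double thymidine or nocodazole block, proteins quantified by TMT10plex mass spectrometry, three independent biological replicates.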
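Throughout, for solubility change mitosis vs G1/S (difference of NP-40 vs SDS log2 ratios): synchronized HeLa Kyoto cells (double thymidine block for G1/S, nocodazole release for mitosis), protein amounts in NP-40 versus SDS lysates quantified by mass spectrometry, three biological replicates.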
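Throughout, for solubility in G1/S (NP-40 vs SDS abundance): HeLa Kyoto cells arrested at G1/S by double thymidine block, proteins quantified by TMT10plex mass spectrometry in mild NP-40 versus SDS extracts, three biological replicates.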
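Throughout, for thermal stability score vs G1/S (z-score of summed log2 fold changes over temperatures): synchronized HeLa Kyoto cells, proteins quantified by TMT10plex mass spectrometry, three biological replicates, mitosis taken 0.5 h after nocodazole release, G1/S directly after double thymidine block.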

As to “MRLGSGTFATCCVAIEVLGIAVFLRGFFPAPVRSSARAEHGAEPPAPEPSAGASSNWTTLPPPLFSKVVIVLIDALRDDFVFGSKGVKFMPYTTYLVEKGASHSFVAEAKPPTVTMPRIKALMTGSLPGFVDVIRNLNSPALLEDSVIRQAKAAGKRIVFYGDETWVKLFPKHFVEYDGTTSFFVSDYTEVDNNVTRHLDKVLKRGDWDILILHYLGLDHIGHISGPNSPLIGQKLSEMDSVLMKIHTSLQSKERETPLPNLLVLCGDHGMSETGSHGASSTEEVNTPLILISSAFERKPGDIRHPKHVQQTDVAATLAIALGLPIPKDSVGSLLFPVVEGRPMREQLRFLHLNTVQLSKLLQENVPSYEKDPGFEQFKMSERLHGNWIRLYLEEKHSEVLFNLGSKVLRQYLDALKTLSLSLSAQVAQYDIYSMMVGTVVVLEVLTLLLLSVPQALRRKAELEVPLSSPGFSLLFYLVILVLSAVHVIVCTSAESSCYFCGLSWLAAGGVMVLASALLCVIVSVLTNVLVGGNTPRKNPMHPSSRWSELDLLILLGTAGHVLSLGASSFVEEEHQTWYFLVNTLCLALSQETYRNYFLGDDGEPPCGLCVEQGHDGATAAWQDGPGCDVLERDKGHGSPSTSEVLRGREKWMVLASPWLILACCRLLRSLNQTGVQWAHRPDLGHWLTSSDHKAELSVLAALSLLVVFVLVQRGCSPVSKAALALGLLGVYCYRAAIGSVRFPWRPDSKDISKGIIEARFVYVFVLGILFTGTKDLLKSQVIAADFKLKTVGLWEIYSGLVLLAALLFRPHNLPVLAFSLLIQTLMTKFIWKPLRHDAAEITVMHYWFGQAFFYFQGNSNNIATVDISAGFVGLDTYVEIPAVLLTAFGTYAGPVLWASHLVHFLSSETRSGSALSHACFCYALICSIPVFTYIVLVTSLRYHLFIWSVFSPKLLYEGMHLLITAAVCVFFTAMDQTRLTQS [PIGG]”, in the data set with HeLa Kyoto [1], the “solubility in G1/S (log2)” value was -0.239. Moreover, the melting temperature with HeLa Kyoto [2] (cell cycle stage: G1/S) was 54.1 °C; in the data set with HeLa Kyoto [2] (cell cycle stage: mitosis), 53.8 °C. Besides, the “solubility change mitosis (log2)” value in the data set on HeLa Kyoto [3] stood at 0.00219. The values for the thermal stability score in the data set with HeLa Kyoto [4] (setting [5]) and in the data set with HeLa Kyoto [4] (cell cycle stage: mitosis) were 0.623 and -0.407, respectively.
As to EIF4G3, the “solubility in G1/S (log2)” value in the data set on HeLa Kyoto [1] came to 0.109. The results for the melting temperature in the data set on HeLa Kyoto [2] (cell cycle stage: G1/S) and with HeLa Kyoto [2] (cell cycle stage: mitosis) were 49.1 °C and 49.4 °C, respectively. The “solubility change mitosis (log2)” value in the data set on HeLa Kyoto [3] was -0.178. Besides, the thermal stability score in the data set with HeLa Kyoto [4] (setting [5]) amounted to 0.306; in the data set with HeLa Kyoto [4] (cell cycle stage: mitosis) it was 2.44.
Take “MAACRYCCSCLRLRPLSDGPFLLPRRDRALTQLQVRALWSSAGSRAVAVDLGNRKLEISSGKLARFADGSAVVQSGDTAVMVTAVSKTKPSPSQFMPLVVDYRQKAAAAGRIPTNYLRREIGTSDKEILTSRIIDRSIRPLFPAGYFYDTQVLCNLLAVDGVNEPDVLAINGASVALSLSDIPWNGPVGAVRIGIIDGEYVVNPTRKEMSSSTLNLVVAGAPKSQIVMLEASAENILQQDFCHAIKVGVKYTQQIIQGIQQLVKETGVTKRTPQKLFTPSPEIVKYTHKLAMERLYAVFTDYEHDKVSRDEAVNKIRLDTEEQLKEKFPEADPYEIIESFNVVAKEVFRSIVLNEYKRCDGRDLTSLRNVSCEVDMFKTLHGSALFQRGQTQVLCTVTFDSLESGIKSDQVITAINGIKDKNFMLHYEFPPYATNEIGKVTGLNRRELGHGALAEKALYPVIPRDFPFTIRVTSEVLESNGSSSMASACGGSLALMDSGVPISSAVAGVAIGLVTKTDPEKGEIEDYRLLTDILGIEDYNGDMDFKIAGTNKGITALQADIKLPGIPIKIVMEAIQQASVAKKEILQIMNKTISKPRASRKENGPVVETVQVPLSKRAKFVGPGGYNLKKLQAETGVTISQVDEETFSVFAPTPSAMHEARDFITEICKDDQEQQLEFGAVYTATITEIRDTGVMVKLYPNMTAVLLHNTQLDQRKIKHPTALGLEVGQEIQVKYFGRDPADGRMRLSRKVLQSPATTVVRTLNDRSSIVMGEPISQSSSNSQ [PNPT1]”: in the data set on HeLa Kyoto [1], the “solubility in G1/S (log2)” value came out at 0.0945. The melting temperature with HeLa Kyoto [2] (cell cycle stage: G1/S) was 49.8 °C; in the data set with HeLa Kyoto [2] (cell cycle stage: mitosis), 50 °C. Further, the “solubility change mitosis (log2)” value in the data set with HeLa Kyoto [3] is -0.154. For the same substance, the thermal stability score came to 0.177 in the data set on HeLa Kyoto [4] (setting [5]) and 1.84 in the data set on HeLa Kyoto [4] (cell cycle stage: mitosis).
“MPMWAGGVGSPRRGMAPASTDDLFARKLRQPARPPLTPHTFEPRPVRGPLLRSGSDAGEARPPTPASPRARAHSHEEASRPAATSTRLFTDPLALLGLPAEEPEPAFPPVLEPRWFAHYDVQSLLFDWAPRSQGMGSHSEASSGTLASAEDQAASSDLLHGAPGFVCELGGEGELGLGGPASPPVPPALPNAAVSILEEPQNRTSAYSLEHADLGAGYYRKYFYGKEHQNFFGMDESLGPVAVSLRREEKEGSGGGTLHSYRVIVRTTQLRTLRGTISEDALPPGPPRGLSPRKLLEHVAPQLSPSCLRLGSASPKVPRTLLTLDEQVLSFQRKVGILYCRAGQGSEEEMYNNQEAGPAFMQFLTLLGDVVRLKGFESYRAQLDTKTDSTGTHSLYTTYQDHEIMFHVSTMLPYTPNNQQQLLRKRHIGNDIVTIVFQEPGSKPFCPTTIRSHFQHVFLVVRAHTPCTPHTTYRVAVSRTQDTPAFGPALPAGGGPFAANADFRAFLLAKALNGEQAAGHARQFHAMATRTRQQYLQDLATNEVTTTSLDSASRFGLPSLGGRRRAAPRGPGAELQAAGSLVWGVRAAPGARVAAGAQASGPEGIEVPCLLGISAEALVLVAPRDGRVVFNCACRDVLAWTFSEQQLDLYHGRGEAITLRFDGSPGQAVGEVVARLQLVSRGCETRELALPRDGQGRLGFEVDAEGFVTHVERFTFAETAGLRPGARLLRVCGQTLPSLRPEAAAQLLRSAPKVCVTVLPPDESGRPRRSFSELYTLSLQEPSRRGAPDPVQDEVQGVTLLPTTKQLLHLCLQDGGSPPGPGDLAEERTEFLHSQNSLSPRSSLSDEAPVLPNTTPDLLLATTAKPSVPSADSETPLTQDRPGSPSGSEDKGNPAPELRASFLPRTLSLRNSISRIMSEAGSGTLEDEWQAISEIASTCNTILESLSREGQPIPESGDPKGTPKSDAEPEPGNLSEKVSHLESMLRKLQEDLQKEKADRAALEEEVRSLRHNNRRLQAESESAATRLLLASKQLGSPTADLA [SIPA1]”: in the data set on HeLa Kyoto [1], the “solubility in G1/S (log2)” value is -0.217. Also, the melting temperature was 50.8 °C with HeLa Kyoto [2] (cell cycle stage: G1/S) and 51.4 °C in the data set on HeLa Kyoto [2] (cell cycle stage: mitosis). Also, in the data set with HeLa Kyoto [3], the “solubility change mitosis (log2)” value came to 0.0512. The thermal stability score turned out to be 1.19 in the data set with HeLa Kyoto [4] (setting [5]) and 0.467 in the data set with HeLa Kyoto [4] (cell cycle stage: mitosis).
Regarding “MNLASQSGEAGAGQLLFANFNQDNTEVKGASRAAGLGRRAVVWSLAVGSKSGYKFFSLSSVDKLEQIYECTDTEDVCIVERLFSSSLVAIVSLKAPRKLKVCHFKKGTEICNYSYSNTILAVKLNRQRLIVCLEESLYIHNIRDMKVLHTIRETPPNPAGLCALSINNDNCYLAYPGSATIGEVQVFDTINLRAANMIPAHDSPLAALAFDASGTKLATASEKGTVIRVFSIPEGQKLFEFRRGVKRCVSICSLAFSMDGMFLSASSNTETVHIFKLETVKEKPPEEPTTWTGYFGKVLMASTSYLPSQVTEMFNQGRAFATVRLPFCGHKNICSLATIQKIPRLLVGAADGYLYMYNLDPQEGGECALMKQHRLDGSLETTNEILDSASHDCPLVTQTYGAAAGKGTYVPSSPTRLAYTDDLGAVGGACLEDEASALRLDEDSEHPPMILRTD [WIPI2]”, the “solubility in G1/S (log2)” value in the data set with HeLa Kyoto [1] was 0.0209. Also, the melting temperature in the data set with HeLa Kyoto [2] (cell cycle stage: G1/S) was determined as 50.4 °C; with HeLa Kyoto [2] (cell cycle stage: mitosis), 51.1 °C. In addition, the “solubility change mitosis (log2)” value in the data set with HeLa Kyoto [3] was -0.0675. The thermal stability score with HeLa Kyoto [4] (setting [5]) was -0.953; with HeLa Kyoto [4] (cell cycle stage: mitosis) it was -0.659.

For the origin of these results see the supplement of paper PMC5998384.
